From the Human Domainome abundance scans (Beltran et al. 2025)
± gives the uncertainty stated by the source.

B1: Nuclear receptor subfamily 4 group A member 2, residues 260 to 336; numbered along this chain, P43354 (parent)
chain: EGLCAVCGDNAACQHYGVRTCEGCKGFFKRTVQKNAKYVCLANKNCPVDKRRRNRCQYCRFQKCLAVGMVKEVVRTD

Variants of: B1
Experiment: abundance fitness (aPCA) (normalised: wild type 0, dead -1); higher = more abundant; growth selection in yeast, the domain comes from the species named
Conditions: Homo sapiens
In the case of EGLCAVCGDNAACQHYGVRTCEGCKGFFKRTVQKNAKCVCLANKNCPVDKRRRNRCQYCRFQKCLAVGMVKEVVRTD [Y38C], the abundance fitness is reported as -0.026 ± 0.49. With EGLCAVCGDNAACQHYGVRTCEGCKGFFKRTVQKNAKHVCLANKNCPVDKRRRNRCQYCRFQKCLAVGMVKEVVRTD [Y38H] the abundance fitness was 0.149 ± 0.23. With EGLCAVCGDNAACQHYGVRTCEGCKGFFKRTVQKNAKVVCLANKNCPVDKRRRNRCQYCRFQKCLAVGMVKEVVRTD [Y38V] the abundance fitness was -0.057 ± 0.39. In the case of EGLCAVCGDNAACQHYGVRTCEGCKGFFKRTVQKNLKYVCLANKNCPVDKRRRNRCQYCRFQKCLAVGMVKEVVRTD [A36L], the abundance fitness is reported as 0.017 ± 0.097. With EGLCAVCGDNAACQHYGVRTCEGCKGFFKRTVQKNPKYVCLANKNCPVDKRRRNRCQYCRFQKCLAVGMVKEVVRTD [A36P] the abundance fitness was -0.081 ± 0.3. EGLCAVCGDNAACQHYGVRTCEGCKGFFKRTVQKNQKYVCLANKNCPVDKRRRNRCQYCRFQKCLAVGMVKEVVRTD [A36Q] showed an abundance fitness of -0.085 ± 0.24. Variant EGLCAVCGDNAACQHYGVRTCEGCKGFFKRTVQKNKKYVCLANKNCPVDKRRRNRCQYCRFQKCLAVGMVKEVVRTD [A36K] has an abundance fitness of -0.291 ± 0.26. With EGLCAVCGDNAACQHYGVRTCEGCKGFFKRTVQKNVKYVCLANKNCPVDKRRRNRCQYCRFQKCLAVGMVKEVVRTD [A36V] the abundance fitness was -0.023 ± 0.079. In the case of EGLCAVCGDNAACQHYGVRTCEGCKGFFKRTVQKNMKYVCLANKNCPVDKRRRNRCQYCRFQKCLAVGMVKEVVRTD [A36M], the abundance fitness is reported as -0.093 ± 0.24. Work on EGLCAVCGDNAACQHYGVRTCEGCKGFFKRTVQKNSKYVCLANKNCPVDKRRRNRCQYCRFQKCLAVGMVKEVVRTD [A36S] yielded an abundance fitness of -0.095 ± 0.1. In the case of EGLCAVCGDNAACQHYGVRTCEGCKGFFKRTVQKNWKYVCLANKNCPVDKRRRNRCQYCRFQKCLAVGMVKEVVRTD [A36W], the abundance fitness is reported as -0.057 ± 0.12. For EGLCAVCGDNAACQHYGVRTCEGCKGFFKRTVQKNACYVCLANKNCPVDKRRRNRCQYCRFQKCLAVGMVKEVVRTD [K37C], the abundance fitness was -0.134 ± 0.25. For EGLCAVCGDNAACQHYGVRTCEGCKGFFKRTVQKNAPYVCLANKNCPVDKRRRNRCQYCRFQKCLAVGMVKEVVRTD [K37P], the abundance fitness was -0.008 ± 0.16. With EGLCAVCGDNAACQHYGVRTCEGCKGFFKRTVQKNAEYVCLANKNCPVDKRRRNRCQYCRFQKCLAVGMVKEVVRTD [K37E] the abundance fitness was -0.177 ± 0.18. Variant EGLCAVCGDNAACQHYGVRTCEGCKGFFKRTVQKNAAYVCLANKNCPVDKRRRNRCQYCRFQKCLAVGMVKEVVRTD [K37A] has an abundance fitness of -0.197 ± 0.11. With EGLCAVCGDNAACQHYGVRTCEGCKGFFKRTVQKNAVYVCLANKNCPVDKRRRNRCQYCRFQKCLAVGMVKEVVRTD [K37V] the abundance fitness was -0.118 ± 0.1. In the case of EGLCAVCGDNAACQHYGVRTCEGCKGFFKRTVQKNADYVCLANKNCPVDKRRRNRCQYCRFQKCLAVGMVKEVVRTD [K37D], the abundance fitness is reported as -0.07 ± 0.27. Variant EGLCAVCGDNAACQHYGVRTCEGCKGFFKRTVQKNAMYVCLANKNCPVDKRRRNRCQYCRFQKCLAVGMVKEVVRTD [K37M] has an abundance fitness of 0.11 ± 0.16. In the case of EGLCAVCGDNAACQHYGVRTCEGCKGFFKRTVQKNATYVCLANKNCPVDKRRRNRCQYCRFQKCLAVGMVKEVVRTD [K37T], the abundance fitness is reported as 0.067 ± 0.15. With EGLCAVCGDNAACQHYGVRTCEGCKGFFKRTVQKNAHYVCLANKNCPVDKRRRNRCQYCRFQKCLAVGMVKEVVRTD [K37H] the abundance fitness was -0.124 ± 0.18. EGLCAVCGDNAACQHYGVRTCEGCKGFFKRTVQKNAGYVCLANKNCPVDKRRRNRCQYCRFQKCLAVGMVKEVVRTD [K37G] gave an abundance fitness of -0.07 ± 0.073. EGLCAVCGDNAACQHYGVRTCEGCKGFFKRTVQKNARYVCLANKNCPVDKRRRNRCQYCRFQKCLAVGMVKEVVRTD [K37R] showed an abundance fitness of -0.099 ± 0.081. Work on EGLCAVCGDNAACQHYGVRTCEGCKGFFKRTVQKNAQYVCLANKNCPVDKRRRNRCQYCRFQKCLAVGMVKEVVRTD [K37Q] yielded an abundance fitness of -0.041 ± 0.17. For EGLCAVCGDNAACQHYGVRTCEGCKGFFKRTVQKNAFYVCLANKNCPVDKRRRNRCQYCRFQKCLAVGMVKEVVRTD [K37F], the abundance fitness was -0.362 ± 0.48. For EGLCAVCGDNAACQHYGVRTCEGCKGFFKRTVQKNAYYVCLANKNCPVDKRRRNRCQYCRFQKCLAVGMVKEVVRTD [K37Y], the abundance fitness was 0.019 ± 0.21. Work on EGLCAVCGDNAACQHYGVRTCEGCKGFFKRTVQKNASYVCLANKNCPVDKRRRNRCQYCRFQKCLAVGMVKEVVRTD [K37S] yielded an abundance fitness of -0.213 ± 0.13. EGLCAVCGDNAACQHYGVRTCEGCKGFFKRTVQKNAKYSCLANKNCPVDKRRRNRCQYCRFQKCLAVGMVKEVVRTD [V39S] gave an abundance fitness of 0.071 ± 0.13. Variant EGLCAVCGDNAACQHYGVRTCEGCKGFFKRTVQKNAKYGCLANKNCPVDKRRRNRCQYCRFQKCLAVGMVKEVVRTD [V39G] has an abundance fitness of -0.616 ± 0.18. For EGLCAVCGDNAACQHYGVRTCEGCKGFFKRTVQKNAKYWCLANKNCPVDKRRRNRCQYCRFQKCLAVGMVKEVVRTD [V39W], the abundance fitness was 0.017 ± 0.17. Variant EGLCAVCGDNAACQHYGVRTCEGCKGFFKRTVQKNAKYPCLANKNCPVDKRRRNRCQYCRFQKCLAVGMVKEVVRTD [V39P] has an abundance fitness of 0.158 ± 0.23. EGLCAVCGDNAACQHYGVRTCEGCKGFFKRTVQKNAKYRCLANKNCPVDKRRRNRCQYCRFQKCLAVGMVKEVVRTD [V39R] gave an abundance fitness of -0.055 ± 0.097. Work on EGLCAVCGDNAACQHYGVRTCEGCKGFFKRTVQKNAKYQCLANKNCPVDKRRRNRCQYCRFQKCLAVGMVKEVVRTD [V39Q] yielded an abundance fitness of -0.244 ± 0.31. With EGLCAVCGDNAACQHYGVRTCEGCKGFFKRTVQKNAKYECLANKNCPVDKRRRNRCQYCRFQKCLAVGMVKEVVRTD [V39E] the abundance fitness was -0.058 ± 0.16. In the case of EGLCAVCGDNAACQHYGVRTCEGCKGFFKRTVQKNAKYACLANKNCPVDKRRRNRCQYCRFQKCLAVGMVKEVVRTD [V39A], the abundance fitness is reported as -0.107 ± 0.17. Work on EGLCAVCGDNAACQHYGVRTCEGCKGFFKRTVQKNAKYYCLANKNCPVDKRRRNRCQYCRFQKCLAVGMVKEVVRTD [V39Y] yielded an abundance fitness of -0.309 ± 0.29. Work on EGLCAVCGDNAACQHYGVRTCEGCKGFFKRTVQKNAKYLCLANKNCPVDKRRRNRCQYCRFQKCLAVGMVKEVVRTD [V39L] yielded an abundance fitness of -0.153 ± 0.2.
